The data set is described as follows: label from the status in PepcDB records.
Turning to “MSLLHIAVLLPLIFALIIPFLYRFVKRIHLGWFVLPVPIVLFIYFISLISMTMSGNNVMKNLNWMPHIGMNFNLYVDGLGLLFSLLITGIGSLVVLYSIGYLSKSEQLGNFYCYLLLFMGAMLGVVLSDNFIILYLFWELTSFSSFLLISFWREKKASIYGAQKSLIITVLGGLSMLGGIILLSLATDTFSIQAMISKASDIQNSPFFILVMILFMIGAFTKSAQVPFYIWLPDAMEAPTPVSAYLHSATMVKAGLYLIARITPIFAISEGWVWTITLVGLITLFWASLNATKQHDLKGILAFSTVSQLGMIMSMLGIGAVSYHYQGANSQLYVAGFVAAIFHLINHATFKGALFMITGGIDHSTGTRDVKKLGGLLTIMPISFTLTVITTLSMAGVPPFNGFLSKEKFLESMINVTHLNLMSLNTLGILLPIIAIIGSIFTFVYSIKFILHIFFGSYKPEALPKQAHESSILMLISPIILTSLVIVFGLFPSILTQSIIEPASVAVSQTSNITAEFHLFHGITPAFLSTIGIYIIGILLLISFSYWVRLLQAHPYQLTLNHWYDTSGQRIPGYSENITNSYVTGFSRNNLVIILGILIALTFVTVISVPFSIDFKNVSHLRVFEGATVLFLLIASTFIIFAKSRLFSIIMLSAVGYAISVLFIFFKAPDLALTQFVVESISTALFLLCFYHLPNLNRYNEKPTFKLTNAVISIGVGLSVIILGLIGYGNRHFDSITKFYQEHVFDLAHGKNMVNVILVDFRGMDTLFESSVLGIAGLGVYTMIKLRLKQKNQSSEVNDHE”, the protein production entry was “failed”. As for “MSLLTLAFNPQPRAKTYCSGPILRVSGVWAVKILYIVLDGAADSPTSPRKTLEEASKPNIDSLGSHAVCGMVYTVKPGVAPQSDYATLSLLGYNPDEYYPGRGPLEAFGAGIEMRRGDIALRANFATVDPGTLRIIDRRVGRSLTSREARELASAVDGMELEDGEGTALFRATIGHRGVLVLRHRSKPLSDAISNTDPAYERRGRFSVALEKYEPFIKLSNPLVEDEAAVLAARMLNEFTLKAVEILDSHPVNLAREKRGLLKANAILSRDAGGLPEEKPPSFQERFGLRGASIVEMVVERGISRYIGLDDIRVEIEGRAREEVYREEAARAVEALETHDLVYVHLKGPDEPGHDGSFEGKIRAVEDIDKHFFAPLLDRLSSAGLEPAFVVTSDHATPWDVGAHSGDPVPLMISHQSIQGSIGKFSETVCLRGRLGTIIGGYRIIPKTLSLLAGLEHHHHHH”, the protein production result was “not failed”. On to “MSLNGSSIIEFEDMTWSQQVEDSKKPVVVMFYSPACPYCKAMEPYFEEYAKEYGSSAVFGRINIATNPWTAEKYGVQGTPTFKFFCHGRPVWEQVGQIYPSILKNAVRDMLQHGEECIRKSTPVGQDITGYVEGHHHHHH”, for which the protein production result was “not failed”. With “MSLNILVIGTGAIGSFYGALLAKTGHCVSVVARSDYETVKAKGIRIRSATLGDYTFRPAAVVRSAAELETKPDCTLLCIKVVEGADRVGLLRDAVAPDTGIVLISNGIDIEPEVAAAFPDNEVISGLAFIGVTRTAPGEIWHQAYGRLMLGNYPGGVSERVKTLAAAFEEAGIDGIATENITTARWQKCVWNAAFNPLSVLSGGLDTLDILSTQEGFVRAIMQEIRAVAAANGHPLPEDIVEKNVASTYKMPPYKTSMLVDFEAGQPMETEVILGNAVRAGRRTRVAIPHLESVYALMKLLELRTSKSLWGNEGHHHHHH”, the protein production result is recorded as “not failed”. On to “MSLNRHFTVSVFIVCKDKVLLHLHKKAKKMLPLGGHIEVNELPEEACIREAKEEAGLNVTLYNPIDINLKKSCDLSGEKLLINPIHTILGDVSPNHSHIDFVYYATTTSFETSPEIGESKILKWYSKEDLKNAHNIQENILVMATEALDLLEGHHHHHH”, for which the protein production entry is “not failed”.

As to “MSLNVIDLFSGVGGLSLGAARAGFDVKMAVEIDQHAINTHAINFPRSLHVQEDVSLLNAEIIKGFFKNDMPIDGIIGGPPCQGFSSIGKGNPDDSRNQLYMHFYRLVSELQPLFFLAENVPGIMQEKYSGIRNKAFNLVSGDYDILDPIKVKASDYGAPTIRTRYFFIGVKKSLKLDISDEVFMPKMIDPVTVKDALYGLPDIIDANWQSDSESWRTIKKDRKGGFYEKLWGQIPRNVGDTESIAKLKNNIISGCTGTLHSKIVQERYASLSFGETDKISRSTRLDPNGFCPTLRAGTARDKGSFQAVRPIHPYHPRVITPREAARLQGFPDWFRFHVTKWHSFRQIGNSVSPIVAEYILKGLYNLLNEGHHHHHH”, the protein production result is given as “not failed”.
